Measured values as given in article PMC4652760.

Key:
[1] = molecular target: Streptomyces coelicolor RNase J (SCO5745) (Streptomyces coelicolor); assay: AUC; analytical ultracentrifugation, data not shown; conditions not given
[2] = molecular target: Streptomyces coelicolor RNase J (SCO5745) (Streptomyces coelicolor); assay: crystal structure; crystals from 27.5% w/v PEG 400, 0.1 M Tris-HCl pH 8.5, 18°C; co-purified RNA bound; space group P4(3)22, two protomers in the asymmetric unit; tetramer by crystallographic 2-fold symmetry

stoichiometry N [1]: 4 | stoichiometry N [2]: 4
Substance: Streptomyces coelicolor RNase J (SCO5745) (enzyme)
